This is an account of results in US20130115256A1 (published 2013).

Where no end group is shown, it is not given here.

What all share (assay): cell-based or functional assay
Test [1] has as its target JNK (c-Jun N-terminal Kinase).
Test [2] addresses T1, MKK4 (Mitogen-Activated Protein Kinase Kinase 4) (UniProt P45985 1-399).
T1 sequence: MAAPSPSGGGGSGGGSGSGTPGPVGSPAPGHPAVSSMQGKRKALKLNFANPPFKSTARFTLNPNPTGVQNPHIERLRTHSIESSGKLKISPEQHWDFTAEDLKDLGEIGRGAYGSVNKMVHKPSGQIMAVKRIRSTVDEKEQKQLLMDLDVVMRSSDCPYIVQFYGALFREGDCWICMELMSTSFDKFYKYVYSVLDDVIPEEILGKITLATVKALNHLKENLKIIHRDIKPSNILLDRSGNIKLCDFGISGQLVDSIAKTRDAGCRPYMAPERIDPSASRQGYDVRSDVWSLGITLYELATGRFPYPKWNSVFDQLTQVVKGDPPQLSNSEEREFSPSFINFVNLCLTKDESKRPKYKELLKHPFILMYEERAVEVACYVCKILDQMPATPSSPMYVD

Test [3] concerns the target T2, MKK6 (Mitogen-Activated Protein Kinase Kinase) (UniProt P52564 1-334).
T2 sequence: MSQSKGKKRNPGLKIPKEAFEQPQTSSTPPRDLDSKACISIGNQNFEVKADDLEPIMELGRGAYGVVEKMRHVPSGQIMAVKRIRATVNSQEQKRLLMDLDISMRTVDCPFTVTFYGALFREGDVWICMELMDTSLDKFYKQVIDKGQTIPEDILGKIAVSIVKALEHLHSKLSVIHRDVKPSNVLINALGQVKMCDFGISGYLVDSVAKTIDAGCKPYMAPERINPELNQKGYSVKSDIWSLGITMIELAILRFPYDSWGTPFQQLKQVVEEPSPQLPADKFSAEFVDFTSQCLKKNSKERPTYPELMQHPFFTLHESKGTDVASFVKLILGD

In test [4] the target is MEK1 (Meiosis-specific serine/threonine protein kinase) (UniProt Q02750 1-393).
Test [5] addresses T3, PRAK (p38-Regulated/Activated Protein Kinase) (UniProt Q8IW41 1-473).
T3 sequence: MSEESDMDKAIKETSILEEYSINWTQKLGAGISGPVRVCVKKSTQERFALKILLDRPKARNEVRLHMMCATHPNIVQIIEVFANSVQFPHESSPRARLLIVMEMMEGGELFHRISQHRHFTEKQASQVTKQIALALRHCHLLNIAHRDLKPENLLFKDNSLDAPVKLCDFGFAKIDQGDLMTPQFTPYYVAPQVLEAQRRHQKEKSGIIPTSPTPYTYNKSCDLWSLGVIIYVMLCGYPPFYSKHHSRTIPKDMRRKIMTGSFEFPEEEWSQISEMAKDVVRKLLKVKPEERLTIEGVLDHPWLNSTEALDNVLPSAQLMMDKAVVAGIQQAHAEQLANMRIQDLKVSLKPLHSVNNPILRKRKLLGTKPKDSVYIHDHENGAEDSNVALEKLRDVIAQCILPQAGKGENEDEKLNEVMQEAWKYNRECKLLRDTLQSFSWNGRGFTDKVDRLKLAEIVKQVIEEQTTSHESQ

For test [6], the target named is p38 MAPK (p38 Mitogen-Activated Protein Kinase).

On to YARAAARQARAKALARQLGVAA (not fully specified (C-terminus)) [MMI-0100 (YARAAARQARAKALARQLGVAA; SEQ ID NO: 1)], for which the “Percent Activity (radiometric kinase assay, peptide at 100 µM)” value in test [1] was found to be 92 % activity; in test [2], 90 % activity; in test [3], 50 % activity; in test [4] it was 68 % activity; in test [5], 100 % activity; in test [6], 60 % activity.
